Data taken from paper PMC2965120, “Ribonucleoprotein Particles Containing Non-Coding Y RNAs, Ro60, La and Nucleolin Are Not Required for Y RNA Function in DNA Replication”.

How the values were obtained:
Ro60;La = Ro60;La (human;human, UniProt P10155;P05455 1-538;1-408, |); test: EMSA; 10-fold molar excess competitor tRNA; RNA:Ro60:La 1:4:4; super-shift, ternary complex; 10 mM Tris-HCl pH 7.5, 100 mM NaCl, 3 mM MgCl2, 1 mM DTT, 10-fold molar excess tRNA, 80 ng hY1 RNA, 15 min at 37 C; native 8% PAGE at 4 C; details: protein: recombinant;recombinant; copies: 1;1; label: 32P (alpha-32P UTP, internal)
Ro60;La, sequence (P10155 whole entry, one chain of several): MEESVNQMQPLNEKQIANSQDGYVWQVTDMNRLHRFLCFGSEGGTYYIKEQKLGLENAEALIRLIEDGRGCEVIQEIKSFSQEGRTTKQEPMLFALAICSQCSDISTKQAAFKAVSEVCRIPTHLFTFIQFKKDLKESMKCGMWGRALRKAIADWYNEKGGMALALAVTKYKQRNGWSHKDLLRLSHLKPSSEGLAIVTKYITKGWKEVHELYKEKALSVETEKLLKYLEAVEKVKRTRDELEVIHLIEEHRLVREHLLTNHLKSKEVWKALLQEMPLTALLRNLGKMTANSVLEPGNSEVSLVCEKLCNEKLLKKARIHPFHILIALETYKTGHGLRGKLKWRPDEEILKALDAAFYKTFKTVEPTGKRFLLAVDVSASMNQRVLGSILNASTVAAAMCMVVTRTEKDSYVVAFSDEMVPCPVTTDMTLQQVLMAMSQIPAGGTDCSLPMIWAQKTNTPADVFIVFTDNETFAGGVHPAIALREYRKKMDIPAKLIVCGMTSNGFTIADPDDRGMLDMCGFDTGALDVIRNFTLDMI

Ro60 = Ro60 (human, UniProt P10155 1-538); test: EMSA; 10-fold molar excess competitor tRNA; about 30-40% of RNA shifted at 4:1 protein:RNA; 10 mM Tris-HCl pH 7.5, 100 mM NaCl, 3 mM MgCl2, 1 mM DTT, 10-fold molar excess tRNA, 80 ng hY1 RNA, 15 min at 37 C; native 8% PAGE at 4 C; details: protein: recombinant; tags: poly-His (pET28a); label: 32P (alpha-32P UTP, internal)
Ro60, sequence (P10155 whole entry): as the sequence (P10155 whole entry, one chain of several) above

La = target: T1, La (human, UniProt P05455 1-408); test: EMSA; 10-fold molar excess competitor tRNA; >90% of RNA shifted at 1:1 protein:RNA; 10 mM Tris-HCl pH 7.5, 100 mM NaCl, 3 mM MgCl2, 1 mM DTT, 10-fold molar excess tRNA, 80 ng hY1 RNA, 15 min at 37 C; native 8% PAGE at 4 C; details: protein: recombinant; label: 32P (alpha-32P UTP, internal)
T1 sequence: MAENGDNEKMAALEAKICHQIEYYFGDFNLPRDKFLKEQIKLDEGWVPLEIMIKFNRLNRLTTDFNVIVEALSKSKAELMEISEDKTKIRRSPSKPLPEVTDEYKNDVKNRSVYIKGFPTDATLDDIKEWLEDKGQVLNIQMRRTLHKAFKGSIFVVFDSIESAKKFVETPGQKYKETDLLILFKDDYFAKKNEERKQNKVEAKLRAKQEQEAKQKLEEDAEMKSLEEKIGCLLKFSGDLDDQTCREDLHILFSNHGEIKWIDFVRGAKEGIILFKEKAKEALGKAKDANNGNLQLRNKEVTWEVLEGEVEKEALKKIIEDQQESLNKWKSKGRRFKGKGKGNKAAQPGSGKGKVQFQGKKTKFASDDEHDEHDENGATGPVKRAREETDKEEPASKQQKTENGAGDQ

Measured: binding result

B1: hY1 RNA (structured_RNA)
RNA: GGCUGGUCCGAAGGUAGUGAGUUAUCUCAAUUGAUUGUUCACAGUCAGUUACAGAUCGAACUCCUUGUUCUACUCUUUCCCCCCUUCUCACUACUGCACUUGACUAGUCUUU
binds: Ro60;La | Ro60 | La
